Results published in ChEMBL document CHEMBL1143427, “Interactions of ceftobiprole with beta-lactamases from molecular classes A to D” (Antimicrob Agents Chemother, 2007).

Columns and labels:
Conditions in all cases: Enterobacter cloacae
[1] = substrate: Nc1nc(/C(=N/O)C(=O)N[C@@H]2C(=O)N3C(C(=O)O)=C(/C=C4\CCN([C@@H]5CCNC5)C4=O)CS[C@H]23)ns1
Description: (§1) Activity of Enterobacter cloacae 908R AmpC assessed as drug hydrolysis by spectrophotometry

[2] = substrate: CO/N=C(\C(=O)N[C@@H]1C(=O)N2C(C(=O)[O-])=C(C[N+]3(C)CCCC3)CS[C@H]12)c1csc(N)n1
Description: as §1

[3] = substrate: CC(C)(O/N=C(\C(=O)N[C@@H]1C(=O)N2C(C(=O)[O-])=C(C[n+]3ccccc3)CS[C@H]12)c1csc(N)n1)C(=O)O
Description: as §1

[4] = substrate: O=C(Cc1cccs1)N[C@@H]1C(=O)N2C(C(=O)[O-])=C(C[n+]3ccccc3)CS[C@H]12
Description: as §1

[5] = substrate: CC1(C)S[C@@H]2[C@H](NC(=O)Cc3ccccc3)C(=O)N2[C@H]1C(=O)O
Description: as §1

[6] = substrate: Nc1nc(/C(=N/O)C(=O)N[C@@H]2C(=O)N3C(C(=O)O)=C(/C=C4\CCN([C@@H]5CCNC5)C4=O)CS[C@H]23)ns1; remark: listed apart in the source
Description: (§2) Activity of Enterobacter cloacae 4080 AmpC (P99) assessed as drug hydrolysis by spectrophotometry

[7] = substrate: CO/N=C(\C(=O)N[C@@H]1C(=O)N2C(C(=O)[O-])=C(C[N+]3(C)CCCC3)CS[C@H]12)c1csc(N)n1; remark: listed apart in the source
Description: as §2

B1: Beta-lactamase (Enterobacter cloacae), P05364 (protein)
chain: MMRKSLCCALLLGISCSALATPVSEKQLAEVVANTITPLMKAQSVPGMAVAVIYQGKPHYYTFGKADIAANKPVTPQTLFELGSISKTFTGVLGGDAIARGEISLDDAVTRYWPQLTGKQWQGIRMLDLATYTAGGLPLQVPDEVTDNASLLRFYQNWQPQWKPGTTRLYANASIGLFGALAVKPSGMPYEQAMTTRVLKPLKLDHTWINVPKAEEAHYAWGYRDGKAVRVSPGMLDAQAYGVKTNVQDMANWVMANMAPENVADASLKQGIALAQSRYWRIGSMYQGLGWEMLNWPVEANTVVEGSDSKVALAPLPVAEVNPPAPPVKASWVHKTGSTGGFGSYVAFIPEKQIGIVMLANTSYPNPARVEAAYHILEALQ
- Km [1]: 12 µM
- kcat [1]: 0.45 s⁻¹
- Km [2]: 16 µM
- kcat [2]: 0.82 s⁻¹
- Km [3]: 3.5 µM
- kcat [3]: 2.3 s⁻¹
- Km [4]: 360 µM
- kcat [4]: 3200 s⁻¹
- Km [5]: 6 µM
- kcat [5]: 53 s⁻¹
- Km [6]: 9.4 µM
- kcat [6]: 0.21 s⁻¹
- Km [7]: 67 µM
- kcat [7]: 0.27 s⁻¹
